Literature values in publication PMC4040926.

Target: SNARE complex (Rattus norvegicus) (UniProt P32851)
Assay: ITC

Chain of UniProt P32851 (P32851 whole entry, chain 1 of 3): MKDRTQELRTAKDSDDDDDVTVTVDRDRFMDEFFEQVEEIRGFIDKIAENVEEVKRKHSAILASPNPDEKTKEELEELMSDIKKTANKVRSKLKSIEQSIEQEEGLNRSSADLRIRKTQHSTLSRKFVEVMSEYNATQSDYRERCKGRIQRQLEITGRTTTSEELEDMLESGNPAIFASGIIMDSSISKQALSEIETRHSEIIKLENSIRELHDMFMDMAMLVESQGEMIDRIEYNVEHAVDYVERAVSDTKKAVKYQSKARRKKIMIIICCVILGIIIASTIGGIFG
Chain of UniProt P32851 (B2RAU4 whole entry, chain 2 of 3, further chain): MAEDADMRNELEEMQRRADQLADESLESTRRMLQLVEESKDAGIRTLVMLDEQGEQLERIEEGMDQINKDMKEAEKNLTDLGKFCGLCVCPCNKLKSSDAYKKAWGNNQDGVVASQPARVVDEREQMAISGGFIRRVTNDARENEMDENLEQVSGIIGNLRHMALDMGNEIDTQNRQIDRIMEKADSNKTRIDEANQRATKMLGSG
Chain of UniProt P32851 (P63044 2-116, chain 3 of 3, further chain): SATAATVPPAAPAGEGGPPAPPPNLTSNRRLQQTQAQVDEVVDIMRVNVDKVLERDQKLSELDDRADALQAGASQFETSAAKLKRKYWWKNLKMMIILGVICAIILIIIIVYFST

- Kd: 25.3 nM
Substance: Complexin-I 26-83 (from UniProt P63041)
